Data taken from paper PMC2993938, “Characterization of an Antennal Carboxylesterase from the Pest Moth Spodoptera littoralis Degrading a Host Plant Odorant” (PLoS ONE, 2010).

Substrate: CC/C=C\CCOC(C)=O
Experiment: GC quantification of (Z)-3-hexenol formed, nonlinear regression
Assay type: biochemical, Spodoptera littoralis
Conditions: 20 mM Tris pH 7.4 and 28 °C (stated for the hydrolysis assay), 5 min incubation, 1 mM to 20 mM substrate, no detergent

B1: SlCXE10 (Spodoptera littoralis) (protein)
chain: MVQVRVSEGVLEGEQVQNEYGGSFYRFRGIPYAQPPLGDLRFKAPQPIKPWQGVRQAKQFGSVCYQYNPTNLGLSNMSEDCLYVNVYTPDIKPQTPIPVMVWIHGGGFMWGSGNDDLYGPEFLIRHNVVLVTFNYRLEALGFLCLDTADVPGNAGMKDQVAALRWVKRNIANFGGNPDNITIFGESAGGGSVSHHLISPMSKGLFNRAIPQSGSTACFWATAFEPKEKAILLAKQLGFHSEDPKELYEFFKKQPCENLVKLNLQVTTSQKSYEIHFSIANEKDFGQERFFYGDIVDVIKNNLQEGVDIMTGYTKDEYTIAVSIGGPLEDILAKAQRYREFFAPKLLHNYGTITDQLEAARKLQKFYFKNEKVSKDNIDNLLNYMSVDMFVYGVMFAAKLYSRKNKVYVYKFNCFSERNVLANAFCVGHLTDDRSVVSHADDLAYLFPVKLFTQKVNKTSVTFKLIDRVTTLWTNFAKYGNPTPDDSLGVKWLPYTLAAQDYMDIGNTLVPGNSPDKEELDFWESVLHQHLPKFSTLNQ
notes: complete ORF (no signal peptide), C-terminal 6His tag kept (pBlueBac4.5/V5-His TOPO), baculovirus / Sf21 cells, Ni-NTA purified, about 60 kDa (predicted 61 kDa)
  Km: 11.4 ± 4.8 mM
